Laboratory results taken from US7666414B2, “Methods for treating prostate cancer using modified antibodies to prostate-specific membrane antigen” (Cornell Research Foundation, Inc., priority 2001, dated 2010).
Where two headings read alike, the source gives them in different places. One block for each molecule: values may come before it.

Columns and labels:
[1] = target: prostate specific membrane antigen (Homo sapiens, UniProt Q04609); experiment: Competitive binding sites on PSMA; conditions: relative to J591, J533, E99 site
prostate specific membrane antigen, sequence (Q04609 whole entry): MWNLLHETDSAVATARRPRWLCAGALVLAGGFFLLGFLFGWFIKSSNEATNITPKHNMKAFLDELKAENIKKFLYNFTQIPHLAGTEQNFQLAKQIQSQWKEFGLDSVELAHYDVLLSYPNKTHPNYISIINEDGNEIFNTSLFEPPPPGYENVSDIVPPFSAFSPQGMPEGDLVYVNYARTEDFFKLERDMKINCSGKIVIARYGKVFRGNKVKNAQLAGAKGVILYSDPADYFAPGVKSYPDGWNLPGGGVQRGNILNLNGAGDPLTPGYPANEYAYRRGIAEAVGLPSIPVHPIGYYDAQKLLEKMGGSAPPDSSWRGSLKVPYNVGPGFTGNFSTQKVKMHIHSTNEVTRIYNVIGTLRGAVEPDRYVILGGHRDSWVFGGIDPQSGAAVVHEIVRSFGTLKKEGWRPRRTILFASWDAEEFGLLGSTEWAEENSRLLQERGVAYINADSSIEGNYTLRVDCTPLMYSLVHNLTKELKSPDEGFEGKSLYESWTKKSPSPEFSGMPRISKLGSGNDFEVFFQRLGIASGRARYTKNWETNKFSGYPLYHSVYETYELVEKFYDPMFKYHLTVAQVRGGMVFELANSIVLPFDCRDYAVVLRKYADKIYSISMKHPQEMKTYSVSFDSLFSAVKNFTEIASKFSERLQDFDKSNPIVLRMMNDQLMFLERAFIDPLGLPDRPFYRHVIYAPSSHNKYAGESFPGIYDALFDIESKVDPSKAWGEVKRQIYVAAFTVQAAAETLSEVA
From the text: To kill or ablate normal, benign hyperplastic, and cancerous prostate epithelial cells, a first antibody, e.g., a modified antibody, can be conjugated with a prodrug which is activated only when in close proximity with a prodrug activator. The prodrug activator is conjugated with a second antibody, e.g., a second modified antibody according to the present invention, preferably one that binds to a non-competing site on the prostate specific membrane antigen molecule. Whether two modified antibodies bind to competing or non-competing binding sites can be determined by conventional competitive binding assays. […] Monoclonal antibody J415, on the other hand, binds to a binding site that is non-competing with the site to which J591, J533, and E99 bind. Thus, for example, the first modified antibody can be one of J591, J533, and E99, and the second modified antibody can be J415. Alternatively, the first modified antibody can be J415, and the second modified antibody can be one of J591, J533, and E99. Drug-prodrug pairs suitable for use in the practice of the present invention are described in Blakely et al., “ZD2767, an Improved System for Antibody-directed Enzyme Prodrug Therapy That Results in Tumor Regressions in Colorectal Tumor Xenografts,” (1996) Cancer Research, 56:3287-3292, which is hereby incorporated by reference.

[2] = target: T1, LNCap membrane preparation (Homo sapiens, UniProt Q04609); experiment: ELISA for binding of J415 deimmunized antibodies to LNCap membrane preparation
T1 construct: ELISA plates were coated with LNCap membrane preparation; endogenous in cells; host or cells: LNCap (LNCaP) human prostate carcinoma cells, membrane preparation
T1 sequence (Q04609 whole entry): as above
Method: The J415 deimmunized antibodies (including various combinations of the deimmunized light chain and heavy chain subunits) were tested in an ELISA for binding to LNCap membrane preparation following the protocol as detailed above. ELISA plates were coated with LNCap membrane preparation and blocked with 5% BSA in phosphate buffered saline. Doubling dilutions of the J415 chimeric antibody (murine variable heavy and light chain regions fused to human constant heavy and light chain regions, respectively) and the deimmunized antibodies were applied. Detection was with horseradish peroxidase conjugated goat anti-human IgG and donkey anti-mouse for chimeric and mouse antibodies respectively. Color was developed with o-phenylene diamine substrate.

[3] = test system: PSMA-positive human LNCaP tumors; experiment: Biodistribution of 131I labeled MAbs in nude mice bearing LNCaP tumors; conditions: mouse, in vivo
Method: (§1) Prior to use, the cells were trypsinized, counted and suspended in Matrigel (Collaborative Biomedical Products, Bedford, Mass.). Nu/Nu Balb C mice 8-10 weeks of age were inoculated, in the right and left flanks, with a suspension of 5×10^6 LNCaP cells in Matrigel (BD Biosciences, Bedford Mass.). After a period of 14-18 days, tumors (100-300 mg) had developed. The PSMA-negative DU145 and PC3 cells were implanted in nude mice in an identical manner.
(§2) The PSMA-positive and PSMA-negative tumor bearing mice were injected, via the tail vein, with 80 KBq of the iodinated MAb (400 MBq/mg) in 200 μL of PBS (pH 7.4, 0.2% BSA). Groups of animals (3-8/group) were sacrificed after 2, 4 or 6 days. The major organs and tumors were recovered. The tissue samples were weighed and counted, with appropriate standards in an automatic NaI(Tl) counter. These measured relative activity data (cpm) were background corrected and expressed as a percentage of the injected dose per gram (% ID/g). […] J415, J591 and 7E11 were labeled with ^111In (100 MBq/mg). 80 KBq of the ^111In labeled MAbs were injected in groups of animals. The % ID/g in various organs and tumor tissues was determined at 2-6 days post injection in a similar way as described for ^131I labeled MAbs.

[4] = test system: PSMA-positive human LNCaP tumors; design: species or system nude mice; conditions: mouse, in vivo
Method: as §1, §2
For the imaging studies, animals were injected with 2 MBq of ^111In-DOTA-J591. […]

binding site on the prostate specific membrane antigen molecule [1]: bind to competing binding sites
B1: J533: murine monoclonal antibody to human PSMA, hybridoma ATCC HB-12127 (antibody, V domains shown)
VH: EVQLQQSGPELVKPGASVKMSCKASGYTFTGYVMHWVKQKPGQVLEWIGYINPYNDVTRYNGKFKGKATLTSDKYSSTAYMELSGLTSEDSAVYYCARGENWYYFDSWGRGATLTVSS
VL: DIVLTQSPASLAVSLGQRATISCRASESIDSYDNTFMHWYQQKPGQPPNLLIFRASILESGIPARFSGSGSGTDFTLTIYPVEADDVATYYCHQSIEDPYTFGGGTKLEIK

binding to LNCap as compared to the chimeric antibody [2]: equivalent binding
B2: DIVH4/DIVK5: deimmunized J415 heavy chain version 4 combined with deimmunized J415 light chain version 5 (antibody, V domains shown)
VH: EVKLEESGGGLVQPGGSMKISCVASGFTFSNYWMNWVRQSPEKGLEWVAEIRSQSNNFATHYAESVKGRVIISRDDSKSSVYLQMNSLRAEDTAVYYCTRRWNNFWGQGTTVTVSS
VL: NIVMTQFPKSMSASAGERMTLTCKASENVGTYVSWYQQKPTQSPKMLIYGASNRFTGVPDRFSGSGSGTDFILTISSVQAEDLVDYYCGQSYTFPYTFGGGTKLEMK

binding site on the prostate specific membrane antigen molecule [1]: non-competing
B3: J415: murine monoclonal antibody to human PSMA, hybridoma ATCC HB-12109 (antibody, V domains shown)
VH: EVKLEESGGGLVQPGGSMKLSCVASGFTFSNYWMNWVRQSPEKGLEWVAEIRSQSNNFATHYAESVKGRVIISRDDSKSSVYLQMNNLRAEDTGIYYCTRRWNNFWGQGTTLTVSS
VL: NIVMTQFPKSMSISVGERVTLTCKASENVGTYVSWYQQKPEQSPKMLIYGASNRFTGVPDRFTGSGSATDFILTISSVQTEDLVDYYCGQSYTFPYTFGGGTKLEMK
blood activity [3]: significantly lower compared to that of 7E11
tumor uptake [3]: 12.2±3.24 % injected dose/gram
tumor/blood and tumor/muscle ratios [3]: significantly higher
blood activity [4]: 2.63±0.23 % ID/g
tumor/blood ratios [4]: significantly higher

binding site on the prostate specific membrane antigen molecule [1]: bind to competing binding sites
B4: E99: murine monoclonal antibody to human PSMA, hybridoma ATCC HB-12101 (antibody, V domains shown)
VH: QVQLKESGPGLVASSQSLSITCTVSGFSLTAYGINWVRQPPGKGLEWLGVIWPDGNTDYNSTLKSRLNIFKDNSKNQVFLKMSSFQTDDTARYFCARDSYGNFKRGWFDFWGQGTTLTVSS
VL: NIVMTQSQKFMSTSPGDRVRVTCKASQNVGSDVAWYQAKPGQSPRILIYSTSYRYSGVPDRFTAYGSGTDFTLTITNVQSEDLTEYFCQQYNSYPLTFGAGTKLELK
